Test results taken from article PMC7018016, “Superstructure formation by RodZ hexamers of Shigella sonnei maintains the rod shape of bacilli” (PLoS ONE, 2020).
Several values for one entry are separate records, joined by “and”; a condition that tells them apart may be missing. Identical values can stand only once.

Tests used:
[1] = molecular target: RodZ_(ΔKRRKKR) (S. sonnei) (UniProt Q3YZ36); experiment: native gel or EMSA; 3%–12% BN-PAGE (NativePAGE Novex Bis-Tris), CBB without SDS, loading buffer with mild detergents; 5 μl of each purified protein
[2] = molecular target: the molecule itself; experiment: cross-linking + other: High-Mass MALDI-TOF MS; serial dilutions (1 mg/ml–19.53 μg/ml) in PBS, treated with K200 Stabilizer crosslinker, CovalX HM3 module, 0–1500 kDa; Complex Tracker software corrects for the mass of the crosslinker; monomer measured without crosslinker
[3] = molecular target: the molecule itself; experiment: native gel or EMSA; 3%–12% BN-PAGE (NativePAGE Novex Bis-Tris), CBB without SDS, loading buffer with mild detergents; 5 μl of each purified protein

**Q.** With “RodZ_(ΔKRRKKR) (from UniProt Q3YZ36 1-337) (natural protein)” as the molecule, how does the stoichiometry N [1] read?
**A.** 6

B1: RodZwt (wild-type RodZ of Shigella sonnei, his6-tagged) (natural protein, S. sonnei, UniProt Q3YZ36 1-337, looked up)
chain: MNTEATHDQNEALTTGARLRNAREQLGLSQQAVAERLCLKVSTVRDIEEDKAPADLASTFLRGYIRSYARLVHIPEEELLPGLEKQAPLRAAKVAPMQSFSLGKRRKKRDGWLMTFTWLVLFVVIGLSGAWWWQDHKAQQEEITTMADQSSAELSSNSEQGQSVPLNTSTTTDPATTSTPPASVDTTATNTQTPAVTAPAPAVDPQQNAVVSPSQANVDTAATPVPTAATTPDGAAPLPTDQAGVTTPAADPNALVMNFTADCWLEVTDATGKKLFSGMQRKDGNLNLTGQAPYKLKIGAPAAVQIQYQGKPVDLSRFIRTNQVARLTLNAEQSPAQ
notes: RodZ of Shigella sonnei MS390, whole rodZ amplified with primers from the start codon to the last codon (337 residues); Cloned NdeI-XhoI into pET22b; predicted mass 36.83 kDa; The XhoI site of pET22b probably adds Leu-Glu before the his6 tag (surmise); also called his6-tagged RodZ; purified RodZwt; not shown: His6, C-terminal, kept
**Q.** What does the source list for B1?
**A.** stoichiometry N [2]: 6.36 times and 6 times; stoichiometry N [3]: ~6

B2: RodZ_(50–337) (domain or fragment)
chain: DKAPADLASTFLRGYIRSYARLVHIPEEELLPGLEKQAPLRAAKVAPMQSFSLGKRRKKRDGWLMTFTWLVLFVVIGLSGAWWWQDHKAQQEEITTMADQSSAELSSNSEQGQSVPLNTSTTTDPATTSTPPASVDTTATNTQTPAVTAPAPAVDPQQNAVVSPSQANVDTAATPVPTAATTPDGAAPLPTDQAGVTTPAADPNALVMNFTADCWLEVTDATGKKLFSGMQRKDGNLNLTGQAPYKLKIGAPAAVQIQYQGKPVDLSRFIRTNQVARLTLNAEQSPAQ
notes: RodZ of Shigella sonnei, residues 50-337; The forward primer adds a start methionine before D50; calculated mass 31.64 kDa; also called N-terminal deletion RodZ_(50-337); not shown: His6, C-terminal, kept
**Q.** How did the “stoichiometry N” value [2] turn out when B2 was run?
**A.** 6.05 times and 6.22 times and 6.03 times

**Q.** What about the “stoichiometry N” value [3] of the same molecule?
**A.** ~2

B3: RodZ_(1–142) (domain or fragment)
chain: MNTEATHDQNEALTTGARLRNAREQLGLSQQAVAERLCLKVSTVRDIEEDKAPADLASTFLRGYIRSYARLVHIPEEELLPGLEKQAPLRAAKVAPMQSFSLGKRRKKRDGWLMTFTWLVLFVVIGLSGAWWWQDHKAQQEE
notes: RodZ of Shigella sonnei, residues 1-142; not shown: His6, C-terminal, kept
**Q.** Does B3 bind [3]?
**A.** binds
